Measured values from US20180265573A1 (ICAHN SCHOOL OF MEDICINE AT MOUNT SINAI, published 2018).

Tests used:
[1] = target: baculovirus-expressed hemagglutinin of influenza virus A/Solomon Islands/06 (H1) (influenza A virus A/Solomon Islands/06 …)
[2] = target: baculovirus-expressed hemagglutinin of influenza virus A/California/04/09 (H1) (influenza A virus A/California/04/09 …)
[3] = target: hemagglutinin of influenza A virus A/Puerto Rico/8/34 (influenza A virus A/Puerto Rico/8/34, UniProt P03452 18-565); assay: cell-based or functional assay
[4] = target: T1, hemagglutinin of influenza A virus A/Hong Kong/1/68 (H3) (influenza A virus A/Hong Kong/1/68 (H3), UniProt Q91MA7 17-566); assay: immunofluorescence on infected, fixed MDCK cells
T1 construct: whole, on cells; also called HK68 (H3)

B1: monoclonal antibody GG3 (antibody, V domains shown)
VH: QIQLVQSGPELKKPGETVKISCKASGYTFTNYGMNWVKQAPGKGLKWMGWINIYSGESTYVDDFTGRFAFSLETSASTAYLQINNLKNEDMATYFCARSGDTMITAGRSFFAMDYWGQGTSVTVSS
VL: DIQMTQSPSSLSASLGERVSLTCRASQEISGYLSWLQQKPDGTIKRLIYAASTLDSGVPKRFSGSRSGSDYSLSISSLESEDFADYYCLQYANYPWSFGGGTKLEIK
notes: also called mAb GG3; Mab GG3
[1]
  EC50 (read off the curve): ~0.007 µg/mL
[2]
  EC50 (read off the curve): ~0.01 µg/mL
[3]
  IC50 (read off the curve), plaque reduction neutralization assay: ~1 µg/mL
[4]
  binding result: no binding (tested: 5 µg/mL)
